Where no end group is shown, it is not given here. [ ]: non-standard residue; d: D form. ACPC = 2-aminocyclopentanecarboxylic acid; β3hT = C[C@@H](O)[C@H](N)CC(=O)O; β3hN = NC(=O)C[C@H](N)CC(=O)O; β3hL = CC(C)C[C@H](N)CC(=O)O; β3hK = NCCCC[C@H](N)CC(=O)O; β3hV = CC(C)[C@H](N)CC(=O)O; β3hD = NC(CC(=O)O)CC(=O)O; β3hS = N[C@@H](CO)CC(=O)O
T1: VPAC1 receptor (UniProt P32241 31-457, limits assumed)
T1 sequence (looked up): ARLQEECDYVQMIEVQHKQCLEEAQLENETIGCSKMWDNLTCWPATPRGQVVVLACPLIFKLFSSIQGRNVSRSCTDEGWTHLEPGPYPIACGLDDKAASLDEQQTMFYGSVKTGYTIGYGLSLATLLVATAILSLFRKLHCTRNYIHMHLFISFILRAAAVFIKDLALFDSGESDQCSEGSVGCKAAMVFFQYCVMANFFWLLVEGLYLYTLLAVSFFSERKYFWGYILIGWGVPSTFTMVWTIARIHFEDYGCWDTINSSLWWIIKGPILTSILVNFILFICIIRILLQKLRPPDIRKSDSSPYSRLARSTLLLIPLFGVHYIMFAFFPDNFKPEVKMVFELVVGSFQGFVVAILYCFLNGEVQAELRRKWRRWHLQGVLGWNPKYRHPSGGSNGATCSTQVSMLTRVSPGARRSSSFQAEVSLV

T2: VPAC2 receptor (UniProt P41587 24-438, limits assumed)
T2 sequence (looked up): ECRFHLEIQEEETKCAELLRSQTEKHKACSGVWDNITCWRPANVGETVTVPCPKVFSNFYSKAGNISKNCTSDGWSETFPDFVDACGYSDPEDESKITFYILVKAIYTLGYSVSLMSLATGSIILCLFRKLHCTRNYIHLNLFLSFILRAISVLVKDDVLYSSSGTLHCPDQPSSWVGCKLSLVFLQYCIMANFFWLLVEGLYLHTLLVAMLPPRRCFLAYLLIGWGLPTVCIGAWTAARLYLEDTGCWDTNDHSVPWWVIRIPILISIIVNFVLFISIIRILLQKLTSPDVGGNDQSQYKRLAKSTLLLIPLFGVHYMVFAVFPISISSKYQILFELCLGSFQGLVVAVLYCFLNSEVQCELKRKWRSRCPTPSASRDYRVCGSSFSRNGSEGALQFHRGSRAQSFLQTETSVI


The binders below were run against T1, VPAC1 receptor (assay: cell-based or functional assay).

EC50 of ligand mediated receptor internalization (chemiluminescent signal, PathHunter eXpress CHO-K1 VIPR1 cells)	Binder
0.0102 µM	HSDAVFTDNY[β3hT]RLR[β3hK]QLA[β3hV]KKY[β3hL]NAI[β3hL]N (not fully specified (C-terminus); printed as HSDAVFTDNYtRLRkQLAvKKYlNAIlN) [LBT-V101]

Target: T1, VPAC1 receptor
Assay: cell-based or functional assay
Remark: another data set of the same source

Binder	EC 50 vpac1 (Molar), cell-based cAMP assay
HSDAVFTDNY[β3hT]RLR[β3hK]QLA[β3hV]KKY[β3hL]NAI[β3hL]N (not fully specified (C-terminus); printed as HSDAVFTDNYtRLRkQLAvKKYlNAIlN) [LBT-V101]	0.00217 µM
H[β3hS]DA[β3hV]FTD[β3hN]Y[β3hT]RLR[β3hK]QLA[β3hV]KKY[β3hL]NAI[β3hL]N (not fully specified (C-terminus); printed as HsDAvFTDnYtRLRkQLAvKKYlNAIlN) [LBT-V106]	298 µM
H[ACPC]DA[ACPC]FTDNY[β3hT]RLR[β3hK]QLA[β3hV]KKY[β3hL]NAI[β3hL]N (not fully specified (C-terminus); printed as HxDAxFTDNYtRLRkQLAvKKYlNAIlN) [LBT-V103]	0.000358 µM
H[ACPC]DA[β3hV]FTDNY[β3hT]RLR[β3hK]QLA[β3hV]KKY[β3hL]NAI[β3hL]N (not fully specified (C-terminus); printed as HxDAvFTDNYtRLRkQLAvKKYlNAIlN) [LBT-V104]	0.00443 µM
H[β3hS]DA[β3hV]FTDNY[β3hT]RLR[β3hK]QLA[β3hV]KKY[β3hL]NAI[β3hL]N (not fully specified (C-terminus); printed as HsDAvFTDNYtRLRkQLAvKKYlNAIlN) [LBT-V105]	0.0644 µM
HS[β3hD]AVF[β3hT]DNY[β3hT]RLR[β3hK]QLA[β3hV]KKY[β3hL]NAI[β3hL]N (not fully specified (C-terminus); printed as HSdAVFtDNYtRLRkQLAvKKYlNAIlN) [LBT-V107]	> 1 µM

Continued, values first:

EC 50 vpac1 (Molar), cell-based cAMP assay	Binder
0.912 µM	H[dF][β3hD]AVF[β3hT]DNY[β3hT]RLR[β3hK]QLA[β3hV]KKY[β3hL]NAI[β3hL]N (not fully specified (C-terminus); printed as HfdAVFtDNYtRLRkQLAvKKYlNAIlN) [LBT-V130]
0.0712 µM	H[dF]DA[β3hV]FTDNY[β3hT]RLR[β3hK]QLA[β3hV]KKY[β3hL]NAI[β3hL]N (not fully specified (C-terminus); printed as HfDAvFTDNYtRLRkQLAvKKYlNAIlN) [LBT-V128]
619 µM	H[dF]DAVFTDNY[β3hT]RLR[β3hK]QLA[β3hV]KKY[β3hL]NAI[β3hL]N (not fully specified (C-terminus); printed as HfDAVFTDNYtRLRkQLAvKKYlNAIlN) [LBT-V126]
0.0893 µM	H[dF]DA[ACPC]FTDNY[β3hT]RLR[β3hK]QLA[β3hV]KKY[β3hL]NAI[β3hL]N (not fully specified (C-terminus); printed as HfDAxFTDNYtRLRkQLAvKKYlNAIlN) [LBT-V127]
> 1 µM	H[dF]DA[β3hV]FTD[β3hN]Y[β3hT]RLR[β3hK]QLA[β3hV]KKY[β3hL]NAI[β3hL]N (not fully specified (C-terminus); printed as HfDAvFTDnYtRLRkQLAvKKYlNAIlN) [LBT-V129]

What follows are binders tested against T2, VPAC2 receptor (assay: cell-based or functional assay).

Binder	EC50 vpac2 (Molar), cell-based cAMP assay
HSDAVFTDNY[β3hT]RLR[β3hK]QLA[β3hV]KKY[β3hL]NAI[β3hL]N (not fully specified (C-terminus); printed as HSDAVFTDNYtRLRkQLAvKKYlNAIlN) [LBT-V101]	8260 µM
H[β3hS]DA[β3hV]FTD[β3hN]Y[β3hT]RLR[β3hK]QLA[β3hV]KKY[β3hL]NAI[β3hL]N (not fully specified (C-terminus); printed as HsDAvFTDnYtRLRkQLAvKKYlNAIlN) [LBT-V106]	0.503 µM
H[ACPC]DA[ACPC]FTDNY[β3hT]RLR[β3hK]QLA[β3hV]KKY[β3hL]NAI[β3hL]N (not fully specified (C-terminus); printed as HxDAxFTDNYtRLRkQLAvKKYlNAIlN) [LBT-V103]	0.0796 µM
H[ACPC]DA[β3hV]FTDNY[β3hT]RLR[β3hK]QLA[β3hV]KKY[β3hL]NAI[β3hL]N (not fully specified (C-terminus); printed as HxDAvFTDNYtRLRkQLAvKKYlNAIlN) [LBT-V104]	0.262 µM
H[β3hS]DA[β3hV]FTDNY[β3hT]RLR[β3hK]QLA[β3hV]KKY[β3hL]NAI[β3hL]N (not fully specified (C-terminus); printed as HsDAvFTDNYtRLRkQLAvKKYlNAIlN) [LBT-V105]	0.716 µM
HS[β3hD]AVF[β3hT]DNY[β3hT]RLR[β3hK]QLA[β3hV]KKY[β3hL]NAI[β3hL]N (not fully specified (C-terminus); printed as HSdAVFtDNYtRLRkQLAvKKYlNAIlN) [LBT-V107]	> 1 µM

Second part, the binder after the results:

EC50 vpac2 (Molar), cell-based cAMP assay	Binder
0.609 µM	H[dF][β3hD]AVF[β3hT]DNY[β3hT]RLR[β3hK]QLA[β3hV]KKY[β3hL]NAI[β3hL]N (not fully specified (C-terminus); printed as HfdAVFtDNYtRLRkQLAvKKYlNAIlN) [LBT-V130]
0.0503 µM	H[dF]DA[β3hV]FTDNY[β3hT]RLR[β3hK]QLA[β3hV]KKY[β3hL]NAI[β3hL]N (not fully specified (C-terminus); printed as HfDAvFTDNYtRLRkQLAvKKYlNAIlN) [LBT-V128]
0.344 µM	H[dF]DAVFTDNY[β3hT]RLR[β3hK]QLA[β3hV]KKY[β3hL]NAI[β3hL]N (not fully specified (C-terminus); printed as HfDAVFTDNYtRLRkQLAvKKYlNAIlN) [LBT-V126]
> 1 µM	H[dF]DA[ACPC]FTDNY[β3hT]RLR[β3hK]QLA[β3hV]KKY[β3hL]NAI[β3hL]N (not fully specified (C-terminus); printed as HfDAxFTDNYtRLRkQLAvKKYlNAIlN) [LBT-V127]
0.989 µM	H[dF]DA[β3hV]FTD[β3hN]Y[β3hT]RLR[β3hK]QLA[β3hV]KKY[β3hL]NAI[β3hL]N (not fully specified (C-terminus); printed as HfDAvFTDnYtRLRkQLAvKKYlNAIlN) [LBT-V129]
